In assay [1] the target is T1, human PERP with myc-His tag expressed in CHO/DG44 cells (PERP/CHO cell) (human, UniProt Q96FX8 1-193).
T1 construct: Four-pass membrane protein of 193 amino acids; On intact cells in FMAT and flow cytometry; as Triton X lysate in sandwich ELISA and immunoprecipitation; SDS-denatured in Western blotting; also called PERP/CHO cells; PERP-expressing cell line; not shown: C-terminal myc-His tag from pcDNA 3.1(-)/myc-His C
Put plainly: flow cytometry on PERP/CHO cells against CHO/DG44 cells, 10 µg/ml. The protocol: As the cells, PERP/CHO cells and CHO/DG44 cells were used. The cells which were cultured for 2 to 3 days on an Iscove's Modified Dulbecco's medium (manufactured by Invitrogen) containing 10% fetal bovine serum and peeled off by 0.02% EDTA solution (manufactured by Nacalai Tesque) were washed with PBS and blocked for 20 minutes at ice temperature using BSA-PBS in order to avoid non-specific antibody adsorption. […] Again, washing was carried out 3 times using PBS by a centrifugation method, followed by suspension in PBS, and wavelength of 510 to 530 nm excited by laser beam 488 nm Ar was measured by a flow cytometer (manufactured by Beckman Coulter).
A general note: Flow cytometry measures light scatter and fluorescence of single cells or particles in a stream.

In assay [2] the target is T1, human PERP with myc-His tag expressed …. Put plainly: flow cytometry on PERP/CHO cells, 5-fold dilutions from 20 µg/mL. The protocol: After washing with a buffer for FCM twice, a solution in which PE-labeled anti-human IgG (H+L) antibody (manufactured by Beckman Coulter) was diluted 50-fold with a buffer for FCM was added thereto at 50 μL/well. After reaction in ice shading from the light for 30 minutes, washing with a buffer for FCM was carried out 3 times and fluorescence intensity was measured using a flow cytometer.

B1: anti-PERP mouse antibody KM3411 (antibody, V domains shown)
VH: DVQLQESGPGLVKPSQSLSLTCTVTGFSITTEYAWNWIRQFPGNRLEWMGYIGYTGRTNYSPSLKSRISITRDTSKNQFFLQLNSVTTEDTATYYCTRMDYWGQGTSVTVSS
VL: QIVLIQSPVIMSASPGEKVTITCSASSSVSYMHWFQQKPGTSPKLWIYSTSNLASGVPARFSGSGSGTSYSLTISRMEAEDAATYYCQQRSSYPPTFGAGTKLELK
notes: Used as hybridoma culture supernatant or purified antibody; also called monoclonal antibody KM3411; monoclonal antibody produced by hybridoma KM3411 (FERM BP-8643)
In the case of B1, the binding result in assay [1] is given as “binds”.

B2: anti-PERP chimeric antibody KM3481 (antibody, V domains shown)
VH: B1 VH
VL: B1 VL
notes: Human chimeric antibody: VH and VL of KM3411 with human CH and CL from the vector pKANTEX93 (WO 97/10354)
Regarding B2, the binding result in assay [2] is on record as “binds”.

Source of the values: patent publication US20090258007A1 (Kyowa Kirin, published 2009).
